# Laboratory results reported in the RNAGym collection of RNA variant scans (doi:10.1073/pnas.2313332121).
# Variants at the floor of the assay were thinned out.
# B1: TPR 5TU (parent)
# chain: GGAUCUUCUCGAUCUAACAAAAAAGACAAAUCUGCCACAAAGCUUGAGAGCAUCUUCGGAUGCAGAGGCGGCAGCCUUCGGUGGCGCGAUAGCGCCAACGUUCUCAACUAUGACACGCAAAACGCGUGCUCCGUUGAAUGGAGUUUAUCAUG
# Variants of: B1
# Experiment: polymerase ribozyme fitness, log enrichment relative to wild type (log ratio); higher = more active; in vitro selection for triplet polymerase activity
# Procedure, shortened: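 PCR was used to build mutant libraries for each subunit of a heterodimeric triplet polymerase ribozyme, which were then transcribed. A single in vitro selection round, in triplicate, used a frozen incubation at −7 °C and recovered extended constructs by gel excision, streptavidin beads and RT-PCR. Fitness is the logarithm of genotype enrichment relative to wild-type enrichment, averaged over replicates with inverse-variance weights. The logarithm is base 2, and after Illumina sequencing only genotypes with ≥10 input reads and ≥1 read per output were kept.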
row,Variant,polymerase ribozyme fitness (log ratio)
1,A60G G94A,0.0761
2,A60G C99U A150C,-4.02
3,A60C C93U C123A,-1.12
4,A60G U144A,-0.159
5,A60C G81A C87A G133C G143A U148A,≤ -4.2
6,A60C G88C,≤ -4.2
7,A60C C103A,≤ -4.2
8,A60G A73U C93U,-1.38
9,A60G A107U C131G,≤ -4.2
10,A60U G136C U139G,-3.71
11,A60C,-0.597
12,A60U,-0.665
13,A60G,0.0111
14,A60C G81C C87A,≤ -4.2
15,A60G G70A C108G,≤ -4.2
16,G59U A73G,-0.629
17,A60G C75G G81C G94U C103A A107U U111G,≤ -4.2
18,A60C U82G G86A U146G,-3.33
19,A60G C123U G124A C131A,-2.39
20,A60G G83A G86A A97C C125G C131G G136A G152U,≤ -4.2
21,A60U C96U,-0.416
22,A60G G94A U102A C123G,-1.46
23,A60G C79G,-3.75
24,G59U C75A C96G,≤ -4.2

row,Variant,polymerase ribozyme fitness (log ratio)
1,A60U C93U U151G,≤ -4.2
2,G59U G88C C116G,-3.85
3,G59U U102G,-3.26
4,A60C A91U C118A,≤ -4.2
5,A60G G80C G140A G141U,≤ -4.2
6,G59U A98G,0.162
7,G59U C69G G88C C125A,≤ -4.2
8,A60G C75G,-2.36
9,G59U C99U C132U,-1.59
10,A60U C87G,≤ -4.2
11,A60U C93U,-3.16
12,G59U C96U A142G,-1.66
13,G59U C69G,-1.07
14,A60C C76A G92U C95A U145G C149G,≤ -4.2
15,G59U C69U C87G C105G C129A G141A,≤ -4.2
16,G59U A60C,-2.96
17,A60C A73G C93U,≤ -4.2
18,A60C G71A C85A G143C,≤ -4.2
19,A60G C93A A97C A110U C123U U130G G133A,≤ -4.2
20,A60U C87A C95A C108A A110G,-4.07
21,A60G G117A,0.434
22,A60C C105G,-3.44
23,A60C C63U U77C G128U A150G G152A,≤ -4.2
24,A60U G84A C116U,-1.05

row,Variant,polymerase ribozyme fitness (log ratio)
1,A60G G70C A89C,-3.24
2,A60G G68U G80C U139A,≤ -4.2
3,A60U G84U,-1.58
4,G59U A91U,-4.12
5,A60C A89C G94A,-1.69
6,A60G C116U,0.141
7,A60U A106G,-0.0172
8,A60G G70A U78C U130A,≤ -4.2
9,G59U U148G,-3.83
10,G59U U148C,-1.18
11,G59U C99U U104G G128U U134A G136U A138G,≤ -4.2
12,A60U C69A,-0.294
13,A60U G65C,-3.98
14,A60G G128U,-2.75
15,G59U G152C,-2.8
16,G59U G88U A121U U127A U134G,≤ -4.2
17,A60G A107U,-3.1
18,A60U A91U C96A C103A A115U,≤ -4.2
19,A60C C79U U102A C103A A142G,≤ -4.2
20,A60U G143A,-1.07
21,A60U C76U G86A G141A,-3.96
22,A60C C85A C125G U144G,-2.67
23,G59U U90G A91G C95A G126C U146G,≤ -4.2
24,G59U G84U,-2.72

row,Variant,polymerase ribozyme fitness (log ratio)
1,G59U C87U C108U C125A,-3.4
2,G59U C85U A150U,1.1
3,A60G G81A A97U C99U,-1.35
4,A60C C93U,-2.64
5,A60C C93A,-3.64
6,A60C C87A A98U,≤ -4.2
7,A60G C93G,-3.44
8,A60U C85A U101A A119G U127C,≤ -4.2
9,A60G U102A U109G A115C,-3.77
10,A60U C132U,-0.719
11,A60U C85A U145A,-1.8
12,G59U U78G C79A C87U U109G A110U,-3.99
13,A60C G80A,-2.27
14,A60G G70C U77A U135G,≤ -4.2
15,G59U A97C C99G,-3.18
16,G59U G86A A147U,-0.0426
17,A60U C99U C118U,-2.07
18,A60G U61G G81C A122C A142U,-3.02
19,G59U A89U C95G,-2.27
20,A60G C95U C96A,-1.03
21,A60G G117C G124U,0.122
22,A60G C129G,-2.25
23,A60G A150G,-0.0266
24,A60G U134G,-2.14

row,Variant,polymerase ribozyme fitness (log ratio)
1,A60G U134A,-1.8
2,A60G U77G C87U C132G,≤ -4.2
3,G59U C93U C114G,-3.92
4,A60U G84U U102G,-4.18
5,G59U A91U G141A,≤ -4.2
6,A60C G83U A121U,-2.35
7,A60G C105G U145G,-1.64
8,G59U G67C G136A,≤ -4.2
9,A60G U61A A97G,-1.38
10,A60C C76U,-3.17
11,A60G A89G,-0.778
12,G59U G94A A98G,-1.07
13,A60U C85U G88U C99U,≤ -4.2
14,A60C U148G A150U,≤ -4.2
15,A60U G81U C85U G92U C93G C96A C103U G128A,≤ -4.2
16,A60G C93G A147G,-4.1
17,A60G C85G G94A,-0.0985
18,G59U C93A G133A A138U G141A,≤ -4.2
19,A60U A91G G141A U145G,-3.98
20,A60G C69A G88A C95G U101A A106C A107G A119C U148A,≤ -4.2
21,A60U G80A C85A C93A,≤ -4.2
22,A60G G92A C96U A121C,-2.75
23,A60G U104G G136U U144C,-3.29
24,A60U G70A C85U G86A,≤ -4.2

row,Variant,polymerase ribozyme fitness (log ratio)
1,A60G A115G U144C U146A A150U,-3.85
2,G59U C93A G152U,≤ -4.2
3,A60U A150C,-3.39
4,A60C A97U,-1.64
5,A60U C79U A98G C103A,≤ -4.2
6,A60C U82G G84A,-1.71
7,A60U A89C,-0.611
8,A60C C76U G88U C116G U135G A142G U148G,≤ -4.2
9,G59U G86A C118G,-2.48
10,A60G U139C G141C U144A,-4.04
11,A60U G84U C95G,0.318
12,A60G G67U C93U C99U C129U,≤ -4.2
13,A60G U78A A106G C118U,≤ -4.2
14,G59U G68A G83A A89U G94U G128U,≤ -4.2
15,A60U C79U G81U A91G C95G U102A,≤ -4.2
16,G59U C96U,-0.292
17,G59U C96A,-0.703
18,A60C C85A C116A,-1.6
19,A60C U61G G92A A110U,-3.93
20,A60G G126A,1.03
21,G59U A120U A122U,-0.451
22,A60G A73G G92U,0.661
23,A60G G71A G141U,≤ -4.2
24,G59U G68A U78C C93G G124A C131G G141U,≤ -4.2

row,Variant,polymerase ribozyme fitness (log ratio)
1,G59U G94U C105U G124U G143C,-3.65
2,G59U C76U C105A A113U C116U,≤ -4.2
3,G59U G124C U134G U146A,-3.17
4,G59U C75U C76U C93G A115U,≤ -4.2
5,A60C U61C C76U A121G,≤ -4.2
6,A60U C85U U148C,-3.17
7,A60C A73G C96U U101G,-3.45
8,A60G U134G G143U,-3.39
9,A60C G67C A73G G81A C114A G136C,≤ -4.2
10,A60C G62C G83U G133A,≤ -4.2
11,A60U C131A,-2.81
12,A60G G84A C118A,-0.875
13,A60G C76A A91G C95U A107C,≤ -4.2
14,A60G C87U U101A,-0.517
15,G59U U139C,-3.8
16,A60G C95U,-0.927
17,A60U C85G C96U C105U,≤ -4.2
18,A60G U90G U145A,≤ -4.2
19,A60U G92U G141C,-2.82
20,A60G A91C C95U A110U C114U C118G A150U,≤ -4.2
21,A60U A89C A142U,-2.09
22,A60U C63A C79G C96U A122U C123U,≤ -4.2
23,A60G C96G,-0.394
